Assay results: IntAct's records for PubMed 29892012

B1: CLK4-associating serine/arginine rich protein (Homo sapiens), Q8N2M8 (parent)
chain: MWHEARKHERKLRGMMVDYKKRAERRREYYEKIKKDPAQFLQVHGRACKVHLDSAVALAAESPVNMMPWQGDTNNMIDRFDVRAHLDHIPDYTPPLLTTISPEQESDERKCNYERYRGLVQNDFAGISEEQCLYQIYIDELYGGLQRPSEDEKKKLAEKKASIGYTYEDSTVAEVEKAAEKPEEEESAAEEESNSDEDEVIPDIDVEVDVDELNQEQVADLNKQATTYGMADGDFVRMLRKDKEEAEAIKHAKALEEEKAMYSGRRSRRQRREFREKRLRGRKISPPSYARRDSPTYDPYKRSPSESSSESRSRSRSPTPGREEKITFITSFGGSDEEAAAAAAAAAASGVTTGKPPAPPQPGGPAPGRNASARRRSSSSSSSSSASRTSSSRSSSRSSSRSRRGGGYYRSGRHARSRSRSWSRSRSRSRRYSRSRSRGRRHSGGGSRDGHRYSRSPARRGGYGPRRRSRSRSHSGDRYRRGGRGLRHHSSSRSRSSWSLSPSRSRSLTRSRSHSPSPSQSRSRSRSRSQSPSPSPAREKLTRPAASPAVGEKLKKTEPAAGKETGAAKPKLTPQEKLKLRMQKALNRQFKADKKAAQEKMIQQEHERQEREDELRAMARKIRMKERERREKEREEWERQYSRQSRSPSPRYSREYSSSRRRSRSRSRSPHYRH
partner: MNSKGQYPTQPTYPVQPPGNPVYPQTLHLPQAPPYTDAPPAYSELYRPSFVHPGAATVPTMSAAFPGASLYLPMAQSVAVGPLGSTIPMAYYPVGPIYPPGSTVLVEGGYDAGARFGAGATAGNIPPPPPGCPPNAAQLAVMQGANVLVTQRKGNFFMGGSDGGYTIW
B2: Keratin, type I cuticular Ha8 (Homo sapiens), O76015 (parent)
chain: MTSSYSSSSCPLGCTMAPGARNVSVSPIDIGCQPGAEANIAPMCLLANVAHANRVRVGSTPLGRPSLCLPPTCHTACPLPGTCHIPGNIGICGAYGENTLNGHEKETMQFLNDRLANYLEKVRQLEQENAELEATLLERSKCHESTVCPDYQSYFHTIEELQQKILCSKAENARLIVQIDNAKLAADDFRIKLESERSLRQLVEADKCGTQKLLDDATLAKADLEAQQESLKEEQLSLKSNHEQEVKILRSQLGEKLRIELDIEPTIDLNRVLGEMRAQYEAMLETNRQDVEQWFQAQSEGISLQDMSCSEELQCCQSEILELRCTVNALEVERQAQHTLKDCLQNSLCEAEDRFGTELAQMQSLISNVEEQLSEIRADLERQNQEYQVLLDVKTRLENEIATYRNLLESEDCKLPCNPCSTSPSCVTAPCAPRPSCGPCTTCGPTCGASTTGSRF
partner: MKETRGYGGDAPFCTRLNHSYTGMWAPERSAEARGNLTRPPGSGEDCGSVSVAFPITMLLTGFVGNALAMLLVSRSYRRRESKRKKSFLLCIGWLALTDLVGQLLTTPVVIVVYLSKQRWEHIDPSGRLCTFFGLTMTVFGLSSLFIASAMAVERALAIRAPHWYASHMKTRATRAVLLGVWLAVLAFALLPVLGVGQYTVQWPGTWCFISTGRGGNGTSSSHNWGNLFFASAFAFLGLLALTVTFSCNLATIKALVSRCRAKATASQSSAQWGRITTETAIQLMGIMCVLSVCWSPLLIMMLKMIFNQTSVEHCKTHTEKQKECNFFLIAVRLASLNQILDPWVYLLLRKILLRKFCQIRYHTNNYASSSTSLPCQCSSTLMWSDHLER
B3: Keratin, type I cuticular Ha8 (Homo sapiens), O76015 (parent)
chain: B2 chain
partner: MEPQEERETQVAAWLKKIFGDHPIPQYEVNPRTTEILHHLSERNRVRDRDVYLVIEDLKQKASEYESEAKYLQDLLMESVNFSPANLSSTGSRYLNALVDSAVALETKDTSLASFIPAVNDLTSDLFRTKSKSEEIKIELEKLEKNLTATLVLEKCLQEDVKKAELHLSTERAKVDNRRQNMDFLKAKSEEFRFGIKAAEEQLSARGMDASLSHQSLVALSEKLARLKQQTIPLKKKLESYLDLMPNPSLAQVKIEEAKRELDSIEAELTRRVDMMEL
B4: DNA topoisomerase 3-beta-1 (Homo sapiens), O95985 (parent)
chain: MKTVLMVAEKPSLAQSIAKILSRGSLSSHKGLNGACSVHEYTGTFAGQPVRFKMTSVCGHVMTLDFLGKYNKWDKVDPAELFSQAPTEKKEANPKLNMVKFLQVEGRGCDYIVLWLDCDKEGENICFEVLDAVLPVMNKAHGGEKTVFRARFSSITDTDICNAMACLGEPDHNEALSVDARQELDLRIGCAFTRFQTKYFQGKYGDLDSSLISFGPCQTPTLGFCVERHDKIQSFKPETYWVLQAKVNTDKDRSLLLDWDRVRVFDREIAQMFLNMTKLEKEAQVEATSRKEKAKQRPLALNTVEMLRVASSSLGMGPQHAMQTAERLYTQGYISYPRTETTHYPENFDLKGSLRQQANHPYWADTVKRLLAEGINRPRKGHDAGDHPPITPMKSATEAELGGDAWRLYEYITRHFIATVSHDCKYLQSTISFRIGPELFTCSGKTVLSPGFTEVMPWQSVPLEESLPTCQRGDAFPVGEVKMLEKQTNPPDYLTEAELITLMEKHGIGTDASIPVHINNICQRNYVTVESGRRLKPTNLGIVLVHGYYKIDAELVLPTIRSAVEKQLNLIAQGKADYRQVLGHTLDVFKRKFHYFVDSIAGMDELMEVSFSPLAATGKPLSRCGKCHRFMKYIQAKPSRLHCSHCDETYTLPQNGTIKLYKELRCPLDDFELVLWSSGSRGKSYPLCPYCYNHPPFRDMKKGMGCNECTHPSCQHSLSMLGIGQCVECESGVLVLDPTSGPKWKVACNKCNVVAHCFENAHRVRVSADTCSVCEAALLDVDFNKAKSPLPGDETQHMGCVFCDPVFQELVELKHAASCHPMHRGGPGRRQGRGRGRARRPPGKPNPRRPKDKMSALAAYFV
B5: Solute carrier family 35 member C2 (Homo sapiens), Q9NQQ7 (parent)
chain: MGRWALDVAFLWKAVLTLGLVLLYYCFSIGITFYNKWLTKSFHFPLFMTMLHLAVIFLFSALSRALVQCSSHRARVVLSWADYLRRVAPTALATALDVGLSNWSFLYVTVSLYTMTKSSAVLFILIFSLIFKLEELRAALVLVVLLIAGGLFMFTYKSTQFNVEGFALVLGASFIGGIRWTLTQMLLQKAELGLQNPIDTMFHLQPLMFLGLFPLFAVFEGLHLSTSEKIFRFQDTGLLLRVLGSLFLGGILAFGLGFSEFLLVSRTSSLTLSIAGIFKEVCTLLLAAHLLGDQISLLNWLGFALCLSGISLHVALKALHSRGDGGPKALKGLGSSPDLELLLRSSQREEGDNEEEEYFVAQGQQ
B6: Leucine-zipper-like transcriptional regulator 1 (Homo sapiens), Q8N653 (parent)
chain: MAGPGSTGGQIGAAALAGGARSKVAPSVDFDHSCSDSVEYLTLNFGPFETVHRWRRLPPCDEFVGARRSKHTVVAYKDAIYVFGGDNGKTMLNDLLRFDVKDCSWCRAFTTGTPPAPRYHHSAVVYGSSMFVFGGYTGDIYSNSNLKNKNDLFEYKFATGQWTEWKIEGRLPVARSAHGATVYSDKLWIFAGYDGNARLNDMWTIGLQDRELTCWEEVAQSGEIPPSCCNFPVAVCRDKMFVFSGQSGAKITNNLFQFEFKDKTWTRIPTEHLLRGSPPPPQRRYGHTMVAFDRHLYVFGGAADNTLPNELHCYDVDFQTWEVVQPSSDSEVGGAEVPERACASEEVPTLTYEERVGFKKSRDVFGLDFGTTSAKQPTQPASELPSGRLFHAAAVISDAMYIFGGTVDNNIRSGEMYRFQFSCYPKCTLHEDYGRLWESRQFCDVEFVLGEKEECVQGHVAIVTARSRWLRRKITQARERLAQKLEQEAAPVPREAPGVAAGGARPPLLHVAIREAEARPFEVLMQFLYTDKIKYPRKGHVEDVLLIMDVYKLALSFQLCRLEQLCRQYIEASVDLQNVLVVCESAARLQLSQLKEHCLNFVVKESHFNQVIMMKEFERLSSPLIVEIVRRKQQPPPRTPLDQPVDIGTSLIQDMKAYLEGAGAEFCDITLLLDGHPRPAHKAILAARSSYFEAMFRSFMPEDGQVNISIGEMVPSRQAFESMLRYIYYGEVNMPPEDSLYLFAAPYYYGFYNNRLQAYCKQNLEMNVTVQNVLQILEAADKTQALDMKRHCLHIIVHQFTKVSKLPTLRSLSQQLLLDIIDSLASHISDKQCAELGADI

Variants of: B1
Details: with dazp2_human DAZAP2, Q15038

Variant	effect of a mutation on the interaction
I163V	with no effect

Variants of: B2
Details: with pe2r3_human PTGER3, P43115

Variant	effect of a mutation on the interaction
N270K	with no effect

Variants of: B2
Details: with pe2r3_human PTGER3, P43115
Remark: another data set of the same source

Variant	effect of a mutation on the interaction
D306A	with no effect

Variants of: B3
Details: with haus1_human HAUS1, Q96CS2

Variant	effect of a mutation on the interaction
D306A	with no effect

Variants of: B3
Details: with haus1_human HAUS1, Q96CS2
Remark: another data set of the same source

Variant	effect of a mutation on the interaction
N270K	with no effect

Variants of: B4
Details: with spre2_human SPRED2, Q7Z698
Chain of spre2_human SPRED2, Q7Z698 (Q7Z698 whole entry): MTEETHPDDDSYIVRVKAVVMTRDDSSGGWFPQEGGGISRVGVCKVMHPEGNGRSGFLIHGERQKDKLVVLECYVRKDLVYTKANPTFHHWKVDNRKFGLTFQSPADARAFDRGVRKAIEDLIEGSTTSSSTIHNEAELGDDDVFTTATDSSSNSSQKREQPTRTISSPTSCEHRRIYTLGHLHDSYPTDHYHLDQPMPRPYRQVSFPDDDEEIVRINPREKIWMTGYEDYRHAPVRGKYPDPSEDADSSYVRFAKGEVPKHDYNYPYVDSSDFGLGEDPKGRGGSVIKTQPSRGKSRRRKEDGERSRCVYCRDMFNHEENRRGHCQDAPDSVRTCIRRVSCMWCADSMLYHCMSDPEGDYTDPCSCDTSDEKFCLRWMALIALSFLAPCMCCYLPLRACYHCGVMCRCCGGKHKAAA

Variant	effect of a mutation on the interaction
C666R	disrupting interaction strength

Variants of: B5
Details: with creb3_human CREB3, O43889
Chain of creb3_human CREB3, O43889 (O43889 whole entry): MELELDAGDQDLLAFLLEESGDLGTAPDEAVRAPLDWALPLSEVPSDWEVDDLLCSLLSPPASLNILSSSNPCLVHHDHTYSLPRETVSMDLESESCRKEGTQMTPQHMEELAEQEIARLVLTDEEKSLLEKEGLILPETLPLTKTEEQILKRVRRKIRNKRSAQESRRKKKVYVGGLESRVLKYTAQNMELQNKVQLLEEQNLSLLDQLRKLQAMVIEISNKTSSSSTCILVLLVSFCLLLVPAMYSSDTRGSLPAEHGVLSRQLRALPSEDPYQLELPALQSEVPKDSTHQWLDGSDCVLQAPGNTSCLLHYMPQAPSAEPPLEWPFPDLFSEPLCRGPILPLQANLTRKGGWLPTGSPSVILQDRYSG

Variant	effect of a mutation on the interaction
G176S	with no effect

Variants of: B6
Details: with gcp4_human TUBGCP4, Q9UGJ1
Chain of gcp4_human TUBGCP4, Q9UGJ1 (Q9UGJ1 whole entry): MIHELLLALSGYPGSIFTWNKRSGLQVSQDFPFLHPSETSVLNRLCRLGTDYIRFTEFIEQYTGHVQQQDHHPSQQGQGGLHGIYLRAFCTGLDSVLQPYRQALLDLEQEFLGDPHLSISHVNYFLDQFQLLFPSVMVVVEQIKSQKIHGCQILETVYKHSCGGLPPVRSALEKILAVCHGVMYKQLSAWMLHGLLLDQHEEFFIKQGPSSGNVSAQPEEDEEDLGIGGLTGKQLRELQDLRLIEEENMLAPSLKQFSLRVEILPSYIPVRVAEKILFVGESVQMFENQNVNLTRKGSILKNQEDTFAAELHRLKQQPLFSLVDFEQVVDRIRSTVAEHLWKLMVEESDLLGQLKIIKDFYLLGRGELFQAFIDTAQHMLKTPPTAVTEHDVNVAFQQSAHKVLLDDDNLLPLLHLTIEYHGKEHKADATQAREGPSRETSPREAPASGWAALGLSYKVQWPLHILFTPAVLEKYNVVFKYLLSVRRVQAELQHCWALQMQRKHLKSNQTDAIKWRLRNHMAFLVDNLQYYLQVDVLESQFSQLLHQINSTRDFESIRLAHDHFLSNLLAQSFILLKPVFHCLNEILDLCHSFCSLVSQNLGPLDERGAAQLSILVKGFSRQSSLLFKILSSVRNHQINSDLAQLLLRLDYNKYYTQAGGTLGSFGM

Variant	effect of a mutation on the interaction
E721K	with no effect

Variants of: B6
Details: with gcp4_human TUBGCP4, Q9UGJ1
Remark: another data set of the same source

Variant	effect of a mutation on the interaction
G663V	disrupting interaction strength
